From IntAct's records for PubMed 19368893

B1: ADP-ribosylation factor-like protein 2-binding protein (Homo sapiens), Q9Y2Y0 (parent)
chain: MDALEGESFALSFSSASDAEFDAVVGYLEDIIMDDEFQLLQRNFMDKYYLEFEDTEENKLIYTPIFNEYISLVEKYIEEQLLQRIPEFNMAAFTTTLQHHKDEVAGDIFDMLLTFTDFLAFKEMFLDYRAEKEGRGLDLSSGLVVTSLCKSSSLPASQNNLRH

Variants of: B1
Details: with arl2_human ARL2, P36404
arl2_human ARL2, P36404, sequence (P36404 whole entry): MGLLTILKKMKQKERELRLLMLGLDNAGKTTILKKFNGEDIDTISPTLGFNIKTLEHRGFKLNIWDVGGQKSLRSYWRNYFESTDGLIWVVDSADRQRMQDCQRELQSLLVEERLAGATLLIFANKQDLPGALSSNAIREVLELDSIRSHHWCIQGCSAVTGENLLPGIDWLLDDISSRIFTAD

Row | effect of a mutation on the interaction | Variant
1 | decreasing interaction | MDALEGESFALSFSSASDAEFDAVVGYLEDIIMDDEFQLLQRNFMDKYYLEFEDTEENKAIYTPIFNEYISLVEKYIEEQLLQRIPEFNMAAFTTTLQHHKDEVAGDIFDMLLTFTDFLAFKEMFLDYRAEKEGRGLDLSSGLVVTSLCKSSSLPASQNNLRH [L60A]
2 | decreasing interaction | MDALEGESFALSFSSASDAEFDAVVGYLEDIIMDDEFQLLQRNFMDKYYLEFEDTEENKLIYTPIFNEYISLVAKYIEEQLLQRIPEFNMAAFTTTLQHHKDEVAGDIFDMLLTFTDFLAFKEMFLDYRAEKEGRGLDLSSGLVVTSLCKSSSLPASQNNLRH [E74A]
3 | decreasing interaction | MDALEGESFALSFSSASDAEFDAVVGYLEDIIMDDEFQLLQRNFMDKYYLEFEDTEENKLIYTPIFNEYISLVEKYIEEQLLQRIPEFNMAAFTTTLQHHKDEVAGDIFAMLLTFTDFLAFKEMFLDYRAEKEGRGLDLSSGLVVTSLCKSSSLPASQNNLRH [D110A]
4 | decreasing interaction | MDALEGESFALSFSSASDAEFDAVVGYLEDIIMDDEFQLLQRNFMDKYYLEFEDTEENKLIYTPIFNEYISLVEKYIEEQLLQRIPEFNMAAFTTTLQHHKDEVAGDIADMLLTFTDFLAFKEMFLDYRAEKEGRGLDLSSGLVVTSLCKSSSLPASQNNLRH [F109A]
5 | decreasing interaction | MDALEGESFALSFSSASDAEFDAVVGYLEDIIMDDEFQLLQRNFMDKYYLEFEDTEENKLIYTPIFNEYISLVEKYIEEQLLQRIPEFNMAAFTTTLQHHKDEVAGDIFDMALTFTDFLAFKEMFLDYRAEKEGRGLDLSSGLVVTSLCKSSSLPASQNNLRH [L112A]
6 | decreasing interaction | MDALEGESFALSFSSASDAEFDAVVGYLEDIIMDDEFQLLQRNFMDKYYLEFEDTEANKLIYTPIFNEYISLVEKYIEEQLLQRIPEFNMAAFTTTLQHHKDEVAGDIFDMLLTFTDFLAFKEMFLDYRAEKEGRGLDLSSGLVVTSLCKSSSLPASQNNLRH [E57A]
7 | decreasing interaction | MDALEGESFALSFSSASDAEFDAVVGYLEDIIMDDEFQLLQRNFMDKYYLEFEDTAENKLIYTPIFNEYISLVEKYIEEQLLQRIPEFNMAAFTTTLQHHKDEVAGDIFDMLLTFTDFLAFKEMFLDYRAEKEGRGLDLSSGLVVTSLCKSSSLPASQNNLRH [E56A]
8 | decreasing interaction | MDALEGESFALSFSSASDAEFDAVVGYLEDIIMDDEFQLLQRNFMDKYYLEFEDTEENKLIYTPIFNEYISLVEKYIEEQLLQRIPEFNMAAFTTTLQHHKDEVAGDIFDMLLTATDFLAFKEMFLDYRAEKEGRGLDLSSGLVVTSLCKSSSLPASQNNLRH [F115A]
